Legend:
[1] = molecular target: T1, human galectin-1 (hGal1), native (Homo sapiens, UniProt P09382 SEQ:1-134); experiment: thermal shift assay; results stated similar to SEQ ID NO 4 and 9; conditions: tags: expressed in E. coli M-15, lactosyl-Sepharose purified; chain copies: 2
Description: (§1) Thermofluor experiments were performed on an Mx3005 RT-PCR (Agilent Technologies) using the SYPRO® Orange dye (492/610 nm) (Invitrogen) as fluorescent probe. The purified (native and alkylated) protein samples were incubated for 30 min with increasing concentration of the molecules of interest, centrifuged, and submitted to the thermal denaturation assay, totalizing four distinct experiments. In a 96-well plate (Agilent Technologies) 20 μl of the reaction containing 5 μM of each protein in buffer PBS 1× and 5× SYPRO® Orange were heated from 25° C. to 95° C. at a rate of 1° C./min. The experimental result was processed as in the protocol previously described and the melting temperature was obtained using GraphPad Prism software (www.graphpad.com).

[2] = molecular target: T1, human galectin-1 (hGal1), native; experiment: thermal shift assay; among the four with greatest Tm variation; conditions: tags: expressed in E. coli M-15, lactosyl-Sepharose purified; chain copies: 2
Description: as §1

T1 sequence (P09382 2-135): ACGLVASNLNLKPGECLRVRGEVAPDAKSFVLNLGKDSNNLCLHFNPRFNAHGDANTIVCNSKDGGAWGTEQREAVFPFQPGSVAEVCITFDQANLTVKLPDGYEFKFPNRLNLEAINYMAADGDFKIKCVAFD

Binder	binding result [1]	binding result [2]
SEQ ID NO. 12 (ssDNA) DNA: AGCTGACACAGCAGGTTGGTGCGCCCAATACAGGCGCAGTATCTGTCCGTGGGCCGGGTAAAAGTTACGGACCGAGTCGAGCAATCTCGAAAT	binds	–
SEQ ID NO. 10 (ssDNA) DNA: AGCTGACACAGCAGGTTGGTGCCAACAAGAAAAGAAACCGTTACAGAAGACACTACAGAATAAGTGAAAAGCCGAGTCGAGCAATCTCGAAAT	binds	–
SEQ ID NO. 9 (ssDNA) DNA: AGCTGACACAGCAGGTTGGTGCCCAAAAGAGCCAATCCACGACGACACCCCAAAAACCATATCACGAATACCCGAGTCGAGCAATCTCGAAAT	–	binds

— patent US20210301293, “DNA APTAMERS, METHOD FOR INHIBITING HUMAN GALECTIN-1 AND METHOD OF TREATING A MAMMAL IN NEED THEREOF” (published 2021)
